# In publication PMC9823007:
# Target: NyxA (for SEC-MALS and SAXS) (Brucella abortus 2308) (UniProt Q2YPD9)
# Assay: SEC-MALS
substance,measurement,value
NyxA (for SEC-MALS and SAXS) (from UniProt Q2YPD9 1-129) (natural protein),stoichiometry N,2
